Consider four substances from patent US20220018856A1.

Assay [1] addresses phosphorylated tau peptide antigen in which threonine at position 181 in tau protein had been phosphorylated. In words: sandwich CLEIA (Lumipulse G), capture on AT270 magnetic particles, ALP-SA label; antigen 0 pg/mL (blank).
Assay [2] shares this target. In words: sandwich CLEIA (Lumipulse G), capture on AT270 magnetic particles, ALP-SA label; antigen 400 pg/mL.
The target is the same in assay [3]. In words: sandwich CLEIA (Lumipulse G), capture on AT270 magnetic particles, ALP-SA label; antigen 40 pg/mL.
Assay [4] shares this target. As to the kind of experiment: sandwich CLEIA (Lumipulse G), capture on AT270 magnetic particles, ALP-SA label; antigen 200 pg/mL.
For assay [5] the target is unchanged. In words: sandwich CLEIA, AT270 capture; count at 40 pg/mL over count at 0 pg/mL.
Assay [6] has the same target. In words: sandwich CLEIA (Lumipulse G), capture on AT270 magnetic particles, ALP-SA label; antigen 100 pg/mL.
For assay [7] the target is unchanged. In words: sandwich CLEIA, AT270 capture; S/N (40/0 pg/mL) against the mixture of ALP-labeled single antibodies.
Assay [8] addresses tau protein in samples obtained by diluting a cerebrospinal fluid specimen with buffer (UniProt P10636). As to the kind of experiment: sandwich CLEIA, AT120 capture, SA-ALP detection; diluted cerebrospinal fluid sample LoQ 1, mean of n=10.
Assay [9] deals with tau protein of the calibrator reagent for measuring total tau protein (LUMIPULSE G Total Tau Calibrators set, Fujirebio) (UniProt P10636). In words: sandwich CLEIA, capture on AT120 magnetic particles, SA-ALP detection; calibrator 150 pg/mL.
The target in assay [10] is tau protein in samples obtained by diluting a cerebrospinal fluid specimen with buffer (UniProt P10636). As to the kind of experiment: sandwich CLEIA, AT120 capture, SA-ALP detection; diluted cerebrospinal fluid sample LoB, mean of n=10.
Assay [11] shares this target. In words: sandwich CLEIA, AT120 capture, SA-ALP detection; diluted cerebrospinal fluid sample LoQ 4, mean of n=10.
The target in assay [12] is tau protein of the calibrator reagent for measuring total tau protein (LUMIPULSE G Total Tau Calibrators set, Fujirebio) (UniProt P10636). In words: sandwich CLEIA, AT120 capture, SA-ALP detection; calculated count at 600 pg/mL over count at 0 pg/mL.
The target is the same in assay [13]. In words: sandwich CLEIA, capture on AT120 magnetic particles, SA-ALP detection; calibrator 900 pg/mL.
Assay [14] has the same target. In words: sandwich CLEIA, capture on AT120 magnetic particles, SA-ALP detection; calibrator 2250 pg/mL.
The target in assay [15] is tau protein in samples obtained by diluting a cerebrospinal fluid specimen with buffer (UniProt P10636). In words: sandwich CLEIA, AT120 capture, SA-ALP detection; diluted cerebrospinal fluid sample LoQ 2, mean of n=10.
Assay [16] concerns the target tau protein of the calibrator reagent for measuring total tau protein (LUMIPULSE G Total Tau Calibrators set, Fujirebio) (UniProt P10636). In words: sandwich CLEIA, capture on AT120 magnetic particles, SA-ALP detection; calibrator 0 pg/mL (blank).
Assay [17] addresses tau protein in samples obtained by diluting a cerebrospinal fluid specimen with buffer (UniProt P10636). As to the kind of experiment: sandwich CLEIA, AT120 capture, SA-ALP detection; diluted cerebrospinal fluid sample LoQ 3, mean of n=10.
For assay [18], the target named is tau protein of the calibrator reagent for measuring total tau protein (LUMIPULSE G Total Tau Calibrators set, Fujirebio) (UniProt P10636). As to the kind of experiment: sandwich CLEIA, capture on AT120 magnetic particles, SA-ALP detection; calibrator 420 pg/mL.
Assay [19] deals with tau protein in samples obtained by diluting a cerebrospinal fluid specimen with buffer (UniProt P10636). In words: sandwich CLEIA, AT120 capture, SA-ALP detection; diluted cerebrospinal fluid sample LoQ 5, mean of n=10.
Assay [20] addresses tau protein of the calibrator reagent for measuring total tau protein (LUMIPULSE G Total Tau Calibrators set, Fujirebio) (UniProt P10636). As to the kind of experiment: sandwich CLEIA, capture on AT120 magnetic particles, SA-ALP detection; calibrator 60 pg/mL.
The target is the same in assay [21]. As to the kind of experiment: one-step sandwich CLEIA (Lumipulse G), capture on AT120 magnetic particles; calibrator 2639 pg/mL.
The target is the same in assay [22]. As to the kind of experiment: one-step sandwich CLEIA (Lumipulse G), capture on AT120 magnetic particles; calibrator 101 pg/mL.
The target is the same in assay [23]. In words: one-step sandwich CLEIA (Lumipulse G), capture on AT120 magnetic particles; calibrator 0 pg/mL (blank).
The target is the same in assay [24]. In words: sandwich CLEIA, AT120 capture; calculated count at 600 pg/mL over count at 0 pg/mL.
In assay [25] the target is phosphorylated tau peptide antigen in which threonine at position 181 in tau protein had been phosphorylated. As to the kind of experiment: sandwich CLEIA (Lumipulse G), capture on AT270 magnetic particles; antigen 72 pM.
Assay [26] has the same target. As to the kind of experiment: sandwich CLEIA (Lumipulse G), capture on AT270 magnetic particles; antigen 18 pM.
Assay [27] shares this target. In words: sandwich CLEIA, AT270 capture; count at 4.5 pM over count at 0 pM.
Assay [28] has the same target. As to the kind of experiment: sandwich CLEIA (Lumipulse G), capture on AT270 magnetic particles; antigen 4.5 pM.
Assay [29] has the same target. In words: sandwich CLEIA (Lumipulse G), capture on AT270 magnetic particles; antigen 0 pM (blank).
Assay [30] concerns the target tau protein in samples obtained by diluting a cerebrospinal fluid specimen with buffer (UniProt P10636). In words: one-step sandwich CLEIA, AT120 capture; diluted cerebrospinal fluid sample LoQ 2, mean of n=10.
Assay [31] deals with tau protein of the calibrator reagent for measuring total tau protein (LUMIPULSE G Total Tau Calibrators set, Fujirebio) (UniProt P10636). As to the kind of experiment: sandwich CLEIA, AT120 capture; S/N (600/0 pg/mL) against BT2-bio + HT7-bio with SA-ALP.
For assay [32] the target is unchanged. In words: one-step sandwich CLEIA (Lumipulse G), capture on AT120 magnetic particles; calibrator 667 pg/mL.
For assay [33], the target named is phosphorylated tau peptide antigen in which threonine at position 181 in tau protein had been phosphorylated. As to the kind of experiment: sandwich CLEIA (Lumipulse G), capture on AT270 magnetic particles; antigen 9 pM.
Assay [34] has as its target tau protein in samples obtained by diluting a cerebrospinal fluid specimen with buffer (UniProt P10636). In words: one-step sandwich CLEIA, AT120 capture; diluted cerebrospinal fluid sample LoQ 1, mean of n=10.
Assay [35] has the same target. As to the kind of experiment: one-step sandwich CLEIA, AT120 capture; diluted cerebrospinal fluid sample LoQ 4, mean of n=10.
The target is the same in assay [36]. As to the kind of experiment: one-step sandwich CLEIA, AT120 capture; diluted cerebrospinal fluid sample LoQ 3, mean of n=10.
Assay [37] has as its target tau protein of the calibrator reagent for measuring total tau protein (LUMIPULSE G Total Tau Calibrators set, Fujirebio) (UniProt P10636). In words: one-step sandwich CLEIA (Lumipulse G), capture on AT120 magnetic particles; calibrator 213 pg/mL.
For assay [38], the target named is tau protein in samples obtained by diluting a cerebrospinal fluid specimen with buffer (UniProt P10636). As to the kind of experiment: one-step sandwich CLEIA, AT120 capture; diluted cerebrospinal fluid sample LoQ 5, mean of n=10.
In assay [39] the target is phosphorylated tau peptide antigen in which threonine at position 181 in tau protein had been phosphorylated. In words: sandwich CLEIA, AT270 capture; S/N (4.5 pM/0 pM) against the ALP-labeled single antibody mixtures.
Assay [40] has the same target. In words: sandwich CLEIA (Lumipulse G), capture on AT270 magnetic particles; antigen 36 pM.
The target is the same in assay [41]. As to the kind of experiment: sandwich CLEIA (Lumipulse G), capture on AT270 magnetic particles; antigen 150 pM.
Assay [42] has as its target tau protein of the calibrator reagent for measuring total tau protein (LUMIPULSE G Total Tau Calibrators set, Fujirebio) (UniProt P10636). As to the kind of experiment: one-step sandwich CLEIA (Lumipulse G), capture on AT120 magnetic particles; calibrator 1037 pg/mL.
The target of assay [43] is tau protein in samples obtained by diluting a cerebrospinal fluid specimen with buffer (UniProt P10636). In words: one-step sandwich CLEIA, AT120 capture; diluted cerebrospinal fluid sample LoB, mean of n=10.

As for “BSA linker hybrid conjugate 2 labeled with ALP (BT2 Fab′ and HT7 Fab′ on biotinylated and maleimidated thiolated BSA, with streptavidin-conjugated alkaline phosphatase) (from UniProt P02769 25-607)”, the Count value was determined as 278 count in assay [1]; 37300 count in [2]; 3970 count in assay [3]; 19300 count in assay [4]; 10100 count in assay [6]. Besides, the S/N (40/0) in assay [5] is 14.3. In addition, the S/N ratio against the mixed conjugate reaction solution in assay [7] is 13 fold.

Take “antibody mixture of biotinylated monoclonal antibody BT2 and biotinylated monoclonal antibody HT7, detected with streptavidin-labeled ALP”: the Count value turned out to be 455 count in assay [8]; 817 count in assay [9]; 408 count in assay [10]; 694 count in assay [11]; 7070 count in assay [13]; 38100 count in [14]. In addition, the Count value in assay [15] was 585 count; in assay [16], 409 count; in [17], 641 count; in assay [18], 2670 count; in [19], 858 count; in assay [20] it was 514 count. For the same substance, the S/N (600/0) in [12] is 10.

On to “hybrid conjugate labeled with alkaline phosphatase (BT2 Fab′ fragment and HT7 Fab′ fragment coupled to maleimidated ALP)”, for which the Count value in assay [21] worked out at 211000 count; in [22], 9280 count; in [23], 744 count; in assay [25], 576000 count; in assay [26], 153000 count; in assay [28] it was 42600 count. The Count value in assay [29] was found to be 595 count; in [30], 1160 count; in assay [32], 50400 count; in [33], 73800 count; in [34] it was 982 count; in [35] it was 1970 count. Further, the Count value amounted to 1600 count in assay [36]; 17600 count in assay [37]; 2380 count in assay [38]; 297000 count in assay [40]; 1.35e+06 count in assay [41]; 83600 count in [42]. The substance further had a Count value in [43] of 728 count. Besides, the S/N (600/0) in assay [24] was 60.6. The substance further gave a S/N (4.5/0) in assay [27] of 71.7. The S/N ratio against the mixture of the labeled antibodies in assay [31] stood at 6 fold. The S/N ratio against the ALP-labeled Fab′ fragment mixture in [39] was determined as 6 fold.

Turning to “BSA linker hybrid conjugate 1 labeled with ALP (BT2 Fab′ and HT7 Fab′ on maleimidated BSA, biotinylated, with streptavidin-conjugated alkaline phosphatase) (from UniProt P02769 25-607)”, the Count value was determined as 312 count in [1]; 28700 count in assay [2]; 3110 count in assay [3]; 14400 count in assay [4]; 7390 count in assay [6]. Besides, the S/N (40/0) in [5] worked out at 10. Also, the S/N ratio against the mixed conjugate reaction solution in assay [7] came to 9 fold.
